Data as given in patent US20190160102A1.

Molecular target: CD33 on MV-4-11 human AML cells (human) (UniProt P20138)
Experiment: flow cytometry, cell-cell binding: HA-positive erythroid cells within the CFSE-positive MV4-11 population (negative control)

Sequence of UniProt P20138 (P20138 18-364 limits assumed): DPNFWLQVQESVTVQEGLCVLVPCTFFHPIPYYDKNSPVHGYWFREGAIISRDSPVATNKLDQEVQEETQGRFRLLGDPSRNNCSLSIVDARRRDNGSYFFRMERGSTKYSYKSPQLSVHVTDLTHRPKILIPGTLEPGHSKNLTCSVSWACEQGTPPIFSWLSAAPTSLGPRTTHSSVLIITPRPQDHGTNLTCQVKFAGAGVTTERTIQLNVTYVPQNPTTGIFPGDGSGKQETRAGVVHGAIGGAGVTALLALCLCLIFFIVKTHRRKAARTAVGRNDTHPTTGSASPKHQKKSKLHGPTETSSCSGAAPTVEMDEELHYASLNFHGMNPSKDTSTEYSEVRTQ

percent of erythroid cells positive for binding to MV4-11: 10.7%
Substance: HA-GPA (HA tag-Glycophorin A) expressed on erythroid cells, negative control
